Measured values taken from patent US20220249685A1, “ANTI-MESOTHELIN ANTIBODIES AND IMMUNOCONJUGATES THEREOF” (Silverback Therapeutics, Inc., priority 2019, published 2022).

Assays:
[1] = system: huPBMCs in the presence of HEK-293 cells transfected with human MSLN; experiment: TNFα production by huPBMCs with HEK-293 cells transfected with human MSLN; assay type: cell-based; conditions: overnight, AlphaLISA
Experimental: Human Whole Blood was obtained from Bloodworks Northwest and collected in 10mL EDTA tubes. Human PBMCs were then isolated from the whole blood by Ficoll gradient centrifugation and resuspended in assay media (RPMI-1640 Medium supplemented with 10% Fetal Bovine Serum, 1 mM Sodium Pyruvate, 1× GlutaMAX-1, 1× Non-Essential Amino Acids, 10mM HEPES and 0.5% Penicillin/Streptomycin; all from Gibco). Tumor cells were removed from tissue culture flasks with HyQTASE (Hyclone), washed twice and resuspended in assay media.
Human PBMCs isolated as described above were resuspended in assay media, and plated in 96-well flat bottom microtiter plates (125,000/well). MSLN-expressing HEK-293cells were then added (25,000/well) along with titrating concentrations of conjugated or unconjugated antibodies. Mock transfected HEK-293 cells were used as a negative control. After overnight culture, supernatants were harvested, and TNFα levels were determined by AlphaLISA.

[2] = Analytical hydrophobic interaction chromatography (HIC) profile, incl. after 40° C. stress; assay type: physicochemical; conditions: TSKgel Butyl-NPR, ammonium sulfate
[3] = Tm of purified antibodies (Table 1); assay type: physicochemical; conditions: purified antibody
Experimental: Six humanized heavy chains were co-transfected with 5 humanized light chains into the ExpiCHO expression system in a 30mL culture. The supernatant was analyzed via Octet to determine off rates and any that retained binding and contained less mouse sequence, were purified and further characterized. Clones 6 and 37 were selected for further optimization. An additional mutation in CDRH2, G55A, was introduced to reduce chemical modification of the neighboring Asparagine (N) residue. These humanized sequences are represented in SEQ ID NOs. 1-15.

For “SS1: chimeric monoclonal anti-mesothelin antibody IgG/K; VH SEQ ID NO: 25, VL SEQ ID NO: 26”, the “TNFα production from huPBMCs” value [1] was “did not stimulate TNFα production”, the “profile on an analytical HIC column” value [2] was “multiple variant species” and the “Tm ° C.” value [3] was 69 °C.
